In the Human Domainome abundance scans (Beltran et al. 2025):
± gives the uncertainty stated by the source.

B1: Nucleolar transcription factor 1, residues 408 to 469; numbered along this chain, P17480 (parent)
chain: KRPVSAMFIFSEEKRRQLQEERPELSESELTRLLARMWNDLSEKKKAKYKAREAALKAQSER

Variants of: B1
Experiment: abundance fitness (aPCA) (normalised: wild type 0, dead -1); higher = more abundant; growth selection in yeast, the domain comes from the species named
Settings: Homo sapiens

Abundance fitness of substitutions, site by site:
L33: W -0.315 ± 0.086 | Q -0.092 ± 0.083 | R -0.159 ± 0.055 | P -1.22 ± 0.19 | M -0.023 ± 0.17 | K -0.154 ± 0.085 | S -0.188 ± 0.07 | V -0.067 ± 0.046
N39: R -0.058 ± 0.037 | T -0.038 ± 0.065 | H -0.106 ± 0.11 | A -0.037 ± 0.042 | E -0.037 ± 0.057 | Q -0.015 ± 0.058 | L -0.122 ± 0.049 | Y -0.075 ± 0.082 | C -0.138 ± 0.11 | D -0.021 ± 0.28 | M -0.071 ± 0.071 | W -0.203 ± 0.046 | S -0.054 ± 0.046 | I -0.147 ± 0.12 | P -0.608 ± 0.066 | F -0.061 ± 0.1 | K -0.087 ± 0.097 | V -0.166 ± 0.054
L34: F -0.296 ± 0.12 | R -0.954 ± 0.06 | N -0.931 ± 0.12 | S -0.271 ± 0.064 | A -0.192 ± 0.053 | Q -0.525 ± 0.085 | K -1.27 ± 0.21 | Y -0.833 ± 0.14 | D -1.19 ± 0.45 | G -0.566 ± 0.06 | C -0.049 ± 0.11 | T -0.096 ± 0.082 | I -0.074 ± 0.091 | E -0.287 ± 0.081 | W -1.01 ± 0.062 | P -0.945 ± 0.17 | V -0.026 ± 0.057
Y49: F -0.221 ± 0.078 | K -0.861 ± 0.1 | E -0.643 ± 0.062 | G -0.761 ± 0.038 | R -0.913 ± 0.056 | Q -0.756 ± 0.17 | W -0.022 ± 0.06 | S -0.718 ± 0.058 | M -0.839 ± 0.08 | L -0.577 ± 0.054 | P -0.615 ± 0.084 | H -0.597 ± 0.096 | T -0.798 ± 0.12 | D -0.626 ± 0.075 | V -0.82 ± 0.052 | N -0.807 ± 0.09
K48: Q -0.091 ± 0.18 | C -0.081 ± 0.15 | L -0.11 ± 0.051 | P -0.009 ± 0.074 | M -0.022 ± 0.056 | N 0.029 ± 0.18 | W -0.094 ± 0.061 | G -0.07 ± 0.052 | T -0.005 ± 0.053 | E 0.104 ± 0.24 | A 0.001 ± 0.053 | S -0.048 ± 0.052 | V -0.101 ± 0.055 | Y -0.209 ± 0.18 | R -0.047 ± 0.05 | D 0.024 ± 0.13 | H -0.213 ± 0.35 | I -0.264 ± 0.36 | F -0.066 ± 0.067
R36: W -0.182 ± 0.058 | D 0.028 ± 0.095 | P -0.483 ± 0.11 | N -0.023 ± 0.12 | L -0.093 ± 0.046 | E -0.084 ± 0.054 | A -0.006 ± 0.063 | M -0.103 ± 0.066 | T -0.037 ± 0.071 | H -0.321 ± 0.24 | F -0.097 ± 0.11 | V -0.05 ± 0.052 | K -0.072 ± 0.08 | I -0.101 ± 0.12 | Q -0.096 ± 0.087 | C -0.051 ± 0.078 | G -0.111 ± 0.039
M37: H -0.267 ± 0.12 | P -1.1 ± 0.092 | A -0.095 ± 0.06 | K -0.296 ± 0.087 | F -0.239 ± 0.15 | D -0.422 ± 0.14 | T -0.212 ± 0.07 | Y -0.12 ± 0.055 | C -0.193 ± 0.1 | N -0.305 ± 0.19 | V -0.382 ± 0.044 | E -0.094 ± 0.056 | Q -0.237 ± 0.088 | G -0.32 ± 0.036 | R -0.147 ± 0.041 | L -0.062 ± 0.041 | I -0.235 ± 0.14 | S -0.225 ± 0.058
A35: W -0.273 ± 0.056 | F -0.176 ± 0.096 | Y -0.387 ± 0.1 | H -0.341 ± 0.076 | T 0.014 ± 0.093 | N -0.011 ± 0.14 | R -0.018 ± 0.049 | E -0.009 ± 0.058 | C -0.194 ± 0.13 | S -0.063 ± 0.063 | D -0.035 ± 0.097 | M -0.102 ± 0.063 | V -0.057 ± 0.047 | Q -0.017 ± 0.095 | I -0.015 ± 0.11 | L -0.063 ± 0.038
E43: D -0.367 ± 0.29 | W -0.276 ± 0.072 | G -0.231 ± 0.073 | P -0.592 ± 0.34 | V -0.207 ± 0.11 | R -0.329 ± 0.064 | A -0.001 ± 0.099 | S -0.213 ± 0.17 | L -0.205 ± 0.083
R52: W -0.234 ± 0.077 | M -0.092 ± 0.061 | V -0.127 ± 0.058 | K 0.014 ± 0.1 | Q 0.002 ± 0.06 | G -0.193 ± 0.048 | F -0.209 ± 0.1 | A -0.17 ± 0.066 | I -0.134 ± 0.11 | Y -0.324 ± 0.11 | T -0.042 ± 0.079 | C -0.111 ± 0.078 | S -0.137 ± 0.046 | L -0.114 ± 0.045 | N -0.277 ± 0.11 | E -0.026 ± 0.073 | D -0.106 ± 0.14 | P -0.254 ± 0.064 | H -0.1 ± 0.099
S42: C -0.155 ± 0.095 | P -0.081 ± 0.059 | Q -0.288 ± 0.068 | V -0.427 ± 0.036 | H -0.179 ± 0.22 | T -0.078 ± 0.049 | E -0.121 ± 0.075 | R -0.698 ± 0.062 | L -0.661 ± 0.052 | G -0.082 ± 0.05 | W -1.06 ± 0.091 | N -0.147 ± 0.13 | M -0.654 ± 0.069 | I -0.56 ± 0.097 | A -0.115 ± 0.058 | Y -0.619 ± 0.099 | D 0.002 ± 0.1 | K -0.294 ± 0.061
K46: A -0.311 ± 0.045 | P -0.772 ± 0.1 | T -0.393 ± 0.089 | E -0.708 ± 0.065 | S -0.569 ± 0.069 | M -0.336 ± 0.07 | H -0.662 ± 0.21 | D -0.896 ± 0.11 | G -0.806 ± 0.045 | V -0.3 ± 0.043 | Y -0.748 ± 0.084 | C -0.537 ± 0.095 | F -0.785 ± 0.12 | L -0.453 ± 0.046 | W -0.736 ± 0.066 | Q -0.112 ± 0.068 | R -0.069 ± 0.04
W38: Q -0.701 ± 0.094 | M -1.06 ± 0.08 | N -1.07 ± 0.22 | A -0.892 ± 0.065 | H -0.803 ± 0.11 | R -1.01 ± 0.048 | P -0.737 ± 0.084 | I -0.867 ± 0.14 | L -0.985 ± 0.07 | D -0.456 ± 0.099 | K -0.787 ± 0.12 | E -0.49 ± 0.057 | Y -0.151 ± 0.17 | C -0.98 ± 0.092 | G -0.667 ± 0.041 | S -0.732 ± 0.054
A47: C -0.156 ± 0.13 | T -0.138 ± 0.11 | D -0.291 ± 0.17 | K -0.029 ± 0.063 | H -0.295 ± 0.2 | Y -0.122 ± 0.15 | I -0.184 ± 0.15 | S -0.046 ± 0.063 | N -0.297 ± 0.23 | R -0.047 ± 0.05 | G -0.098 ± 0.052 | Q -0.005 ± 0.054 | P -0.695 ± 0.082 | F -0.11 ± 0.26 | L -0.064 ± 0.047 | E -0.039 ± 0.086
K45: D -0.052 ± 0.097 | W -0.232 ± 0.047 | Y -0.181 ± 0.094 | S -0.023 ± 0.04 | F -0.105 ± 0.088 | Q 0.014 ± 0.058 | H -0.099 ± 0.11 | R -0.061 ± 0.038 | E 0.067 ± 0.055 | G -0.009 ± 0.044 | T -0.067 ± 0.042 | C -0.002 ± 0.062 | P -0.435 ± 0.069 | V -0.097 ± 0.042 | N -0.064 ± 0.072 | I -0.07 ± 0.063 | M -0.039 ± 0.049 | L -0.131 ± 0.054 | A -0.048 ± 0.052
D40: Q -0.036 ± 0.081 | S -0.107 ± 0.064 | I -0.763 ± 0.27 | E -0.058 ± 0.054 | M -0.044 ± 0.08 | V -0.188 ± 0.05 | R -0.237 ± 0.039 | K -0.15 ± 0.084 | H -0.257 ± 0.21 | N -0.265 ± 0.087 | C -0.213 ± 0.077 | F -0.135 ± 0.13 | W -0.319 ± 0.056 | A -0.143 ± 0.06 | G -0.094 ± 0.038 | T -0.202 ± 0.078 | P -0.911 ± 0.09 | L -0.105 ± 0.052
K50: R -0.032 ± 0.055 | F 0.002 ± 0.11 | D -0.189 ± 0.1 | A -0.138 ± 0.076 | V -0.038 ± 0.064 | I 0.005 ± 0.11 | E -0.017 ± 0.08 | C -0.049 ± 0.099 | P -0.65 ± 0.077 | H -0.036 ± 0.13 | M -0.096 ± 0.083 | S -0.131 ± 0.053 | W -0.134 ± 0.059 | G -0.251 ± 0.074 | Y -0.074 ± 0.22 | Q -0.016 ± 0.079
A51: P -0.374 ± 0.094 | Y -0.097 ± 0.18 | W -0.219 ± 0.082 | F -0.079 ± 0.07 | G -0.101 ± 0.047 | C -0.166 ± 0.094 | H -0.142 ± 0.12 | Q -0.053 ± 0.082 | D -0.102 ± 0.06 | I -0.148 ± 0.075 | S -0.066 ± 0.052 | E -0.033 ± 0.082 | M -0.059 ± 0.074 | K -0.052 ± 0.086 | L -0.042 ± 0.051 | V -0.059 ± 0.051
L41: M -0.066 ± 0.074 | H -0.8 ± 0.13 | R -0.57 ± 0.054 | T -0.241 ± 0.065 | A -0.165 ± 0.061 | I -0.139 ± 0.11 | S -0.228 ± 0.061 | F -0.362 ± 0.14 | C -0.219 ± 0.093 | N -0.609 ± 0.29 | Y -0.507 ± 0.25 | P -0.846 ± 0.093 | D -0.613 ± 0.079 | G -0.932 ± 0.049 | V -0.345 ± 0.042 | K -0.576 ± 0.075 | Q -0.225 ± 0.07 | E -0.388 ± 0.061 | W -1.06 ± 0.074
E53: A -0.056 ± 0.072 | I -0.356 ± 0.15 | G -0.142 ± 0.081 | K -0.366 ± 0.083 | L -0.183 ± 0.056 | D -0.123 ± 0.076 | C -0.086 ± 0.11 | H -0.152 ± 0.091 | F -0.186 ± 0.068
K44: V -0.034 ± 0.04 | C -0.126 ± 0.083 | S 0.003 ± 0.041 | I -0.159 ± 0.081 | D 0.059 ± 0.087 | T -0.023 ± 0.059 | P -0.037 ± 0.051 | M -0.096 ± 0.056 | W -0.09 ± 0.053 | R -0.139 ± 0.035 | H -0.121 ± 0.12 | E -0.021 ± 0.064 | L -0.108 ± 0.043
